Experimental data: PMC4621449

Molecular target: SO_3165 antitoxin (MNT family), SO_3165-CHis (Shewanella oneidensis (MR-1)) (UniProt Q8ECH7)
Assay: EMSA
Details: 10 mM HEPES pH 7.3, 20 mM KCl, 1 mM MgCl2, 5% glycerol, NP-40, poly dI-dC, 25 C, 1 h; 0.05 pmol biotin-DNA; 6% gel in 0.5x TBE

Chain of SO_3165 antitoxin (MNT family), SO_3165-CHis (Shewanella oneidensis (MR-1)) (Q8ECH7 whole entry): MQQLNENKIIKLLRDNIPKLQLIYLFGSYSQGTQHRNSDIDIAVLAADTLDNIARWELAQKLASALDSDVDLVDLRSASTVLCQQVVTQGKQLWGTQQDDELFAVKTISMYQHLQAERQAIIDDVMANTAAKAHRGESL

## TACGAGGCCAGAATTTAAAAGCGCAGCCGTCAGAAATGCAGCGATTAGAAGAAGTTGAAACTTCCGATGCAACCTCTTCAGACGCTGAACTACCAATACTTAAGCACACACATATAGAAAACCCGTCCCTACTATACCATAAACAATGTCAGGTACTGCGTATCGTTATAGAATGCACTAAAAAGTTCTAGATTAGAGCCACACAGTGGCGTCTTCAAAACCTGTGTCCGTCCTTTTGGCTCCGCCTTAATATGCTATATACTCATCCCGTATTCATCAAATCGTGCAATGGACCT (double strand) [PSO_3165-3166 promoter]
  binding: binds
